Source: publication PMC4281115, “pH-Dependent Conformational Changes in the HCV NS3 Protein Modulate Its ATPase and Helicase Activities”

What was measured:
[1] = molecular target: T1, NS3hel (NS3 helicase domain) (Hepatitis C virus genotype 1b …, UniProt Q9WMX2 1193-1657); test: fluorescence anisotropy; pH 6.4, 2 mM MgCl2; 25 mM MOPS-NaOH pH 6.4 or 7.2, 2 mM MgCl2, 25 C; 25 nM 5-FAM-dT20 with 0-10 uM NS3hel or 0-5 uM NS3FL, 10 min (anisotropy); 1 uM protein with 0-1 uM ssDNA (Trp); settings: protein: recombinant; tags: N-terminal 6xHis-TEV, cleaved; label: 5'-carboxyfluorescein (5-FAM); single strand
T1 sequence (Q9WMX2 1193-1657): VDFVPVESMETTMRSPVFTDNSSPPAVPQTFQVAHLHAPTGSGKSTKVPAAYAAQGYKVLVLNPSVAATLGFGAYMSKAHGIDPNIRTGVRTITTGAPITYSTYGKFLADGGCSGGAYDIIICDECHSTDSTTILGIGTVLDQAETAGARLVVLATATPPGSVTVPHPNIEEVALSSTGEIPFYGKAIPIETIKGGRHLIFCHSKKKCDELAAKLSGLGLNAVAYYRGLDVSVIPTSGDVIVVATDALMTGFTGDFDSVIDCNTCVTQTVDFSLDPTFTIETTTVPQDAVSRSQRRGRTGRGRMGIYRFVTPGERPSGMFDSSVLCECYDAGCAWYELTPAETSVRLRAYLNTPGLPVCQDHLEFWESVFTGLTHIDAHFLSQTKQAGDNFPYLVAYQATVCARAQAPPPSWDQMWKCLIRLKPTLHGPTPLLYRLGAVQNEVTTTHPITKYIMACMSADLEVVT

[2] = molecular target: T2, NS3FL (full-length NS3) (Hepatitis C virus genotype 1b …, UniProt Q9WMX2 1027-1657); test: as above; settings: protein: recombinant; tags: C-terminal 6xHis; label: 5'-carboxyfluorescein (5-FAM); single strand
T2 sequence (Q9WMX2 1027-1657): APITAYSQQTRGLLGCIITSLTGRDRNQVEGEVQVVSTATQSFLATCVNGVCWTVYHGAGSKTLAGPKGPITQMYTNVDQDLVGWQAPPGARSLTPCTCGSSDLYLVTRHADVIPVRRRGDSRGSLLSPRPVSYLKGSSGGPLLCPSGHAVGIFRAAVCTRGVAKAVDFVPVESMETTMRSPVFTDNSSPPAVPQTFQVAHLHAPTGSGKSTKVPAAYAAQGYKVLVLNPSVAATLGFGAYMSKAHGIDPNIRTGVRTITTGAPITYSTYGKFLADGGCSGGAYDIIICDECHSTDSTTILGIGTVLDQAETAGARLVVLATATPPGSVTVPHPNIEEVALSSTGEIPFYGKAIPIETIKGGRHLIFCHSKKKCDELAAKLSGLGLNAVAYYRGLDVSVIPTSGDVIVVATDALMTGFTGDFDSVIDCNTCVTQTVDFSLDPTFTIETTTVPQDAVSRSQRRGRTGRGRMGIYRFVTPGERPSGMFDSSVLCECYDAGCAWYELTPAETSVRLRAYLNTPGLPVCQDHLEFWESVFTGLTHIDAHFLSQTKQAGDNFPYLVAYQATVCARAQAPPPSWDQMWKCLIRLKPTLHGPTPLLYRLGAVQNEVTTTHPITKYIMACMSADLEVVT

[3] = molecular target: T1, NS3hel (NS3 helicase domain); test: fluorescence anisotropy; pH 7.2, 2 mM MgCl2; 25 mM MOPS-NaOH pH 6.4 or 7.2, 2 mM MgCl2, 25 C; 25 nM 5-FAM-dT20 with 0-10 uM NS3hel or 0-5 uM NS3FL, 10 min (anisotropy); 1 uM protein with 0-1 uM ssDNA (Trp); settings: protein: recombinant; tags: N-terminal 6xHis-TEV, cleaved; label: 5'-carboxyfluorescein (5-FAM); single strand
[4] = molecular target: T2, NS3FL (full-length NS3); test: as above; settings: protein: recombinant; tags: C-terminal 6xHis; label: 5'-carboxyfluorescein (5-FAM); single strand

## TTTTTTTTTTTTTTTTTTTT (ssDNA) [5-FAM oligo(dT)20]
[1]
  Kd: ~42 nM
[2]
  Kd: ~28 nM
[3]
  Kd: ~254 nM
[4]
  Kd: ~49 nM
